Data reported in US20200157519A1.
Changes are numbered by the printed parent chain.

B1: scFv clone 7A3 (scFv, V domains shown)
VH: EVQLVESGGGLVQPGGSLRLSCAASGFTINDWSIHWVRQAPGKGLEWVAYIGPFWGSTFYADSVKGRFTISADTSKNTAYLQMNSLRAEDTAVYYCARGYFGFDYWGQGTLVTVSS
VL: DIQMTQSPSSLSASVGDRVTITCRASQDVGGWVAWYQQKPGKAPKLLISSPRSLYSGVPSRFSGSGSGTDFTLTISSLQPEDFATYYCQQYFSSPFTFGQGTKVEIKR
B2: scFv clone 3C2 (scFv, V domains shown)
VH: EVQLVESGGGLVQPGGSLRLSCAASGFTIGNSSIHWVRQAPGKGLEWVAGIWPYWGSTYYADSVKGRFTISADTSKNTAYLQMNSLRAEDTAVYYCARFGINNDGFMDYWGQGTLVTVSS
VL: B1 VL with G30S, P51T, R52G, F92Y, S93D, S94F, F96I
B3: scFv clone 8F2 (scFv, V domains shown)
VH: EVQLVESGGGLVQPGGSLRLSCAASGFTINNYGIHWVRQAPGKGLEWVAGIWPYWGYTYYADSVKGRFTISADTSKNTAYLQMNSLRAEDTAVYYCARFDSNSYSSYSDGFMDYWGQGTLVTVSS
VL: B1 VL with G30D, G31N, W32S, P51A, F92Y, S93N, S94Y, F96I
B4: phage-displayed 3D5 scFv (scFv)
scFv: DIQMTQSPSSLSASVGDRVTITCRASQDVSNNVAWYQQKPGKAPKLLIFWSPWLYSGVPSRFSGSGSGTDFTLTISSLQPEDFATYYCQQGWDSPVTFGQGTKVEIKRGGGGSGGGGSGGGGSEVQLVESGGGLVQPGGSLRLSCAASGFTISDFGIHWVRQAPGKGLEWVASIWPSGGYTYYADSVKGRFTISADTSKNTAYLQMNSLRAEDTAVYYCARSWFYSWYDYWGQGTLVTVSS

Target: human fibrinogen (human) (UniProt P02671)
Experiment: single colony ELISA, secreted scFv on coated fibrinogen (negative control antigen), anti-E-tag-HRP

Chain of human fibrinogen (human) (P02671 20-629 limits assumed, chain 1 of 3): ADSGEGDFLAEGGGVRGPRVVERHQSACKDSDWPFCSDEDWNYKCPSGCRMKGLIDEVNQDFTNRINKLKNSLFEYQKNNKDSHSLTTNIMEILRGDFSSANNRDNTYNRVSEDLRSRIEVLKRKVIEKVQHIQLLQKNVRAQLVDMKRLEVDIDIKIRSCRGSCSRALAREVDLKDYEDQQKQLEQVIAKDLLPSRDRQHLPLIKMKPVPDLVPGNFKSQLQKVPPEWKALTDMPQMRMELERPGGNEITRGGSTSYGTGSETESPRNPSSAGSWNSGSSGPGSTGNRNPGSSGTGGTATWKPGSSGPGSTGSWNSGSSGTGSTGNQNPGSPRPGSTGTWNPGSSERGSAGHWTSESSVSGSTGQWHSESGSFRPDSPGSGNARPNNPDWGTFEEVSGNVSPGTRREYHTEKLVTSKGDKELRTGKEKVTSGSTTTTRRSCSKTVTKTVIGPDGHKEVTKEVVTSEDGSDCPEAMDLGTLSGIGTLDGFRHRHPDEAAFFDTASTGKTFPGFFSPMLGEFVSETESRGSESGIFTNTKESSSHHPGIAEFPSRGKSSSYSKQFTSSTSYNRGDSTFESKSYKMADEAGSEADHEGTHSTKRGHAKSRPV
Chain of human fibrinogen (human) (P02675 31-491 limits assumed, chain 2 of 3, further chain): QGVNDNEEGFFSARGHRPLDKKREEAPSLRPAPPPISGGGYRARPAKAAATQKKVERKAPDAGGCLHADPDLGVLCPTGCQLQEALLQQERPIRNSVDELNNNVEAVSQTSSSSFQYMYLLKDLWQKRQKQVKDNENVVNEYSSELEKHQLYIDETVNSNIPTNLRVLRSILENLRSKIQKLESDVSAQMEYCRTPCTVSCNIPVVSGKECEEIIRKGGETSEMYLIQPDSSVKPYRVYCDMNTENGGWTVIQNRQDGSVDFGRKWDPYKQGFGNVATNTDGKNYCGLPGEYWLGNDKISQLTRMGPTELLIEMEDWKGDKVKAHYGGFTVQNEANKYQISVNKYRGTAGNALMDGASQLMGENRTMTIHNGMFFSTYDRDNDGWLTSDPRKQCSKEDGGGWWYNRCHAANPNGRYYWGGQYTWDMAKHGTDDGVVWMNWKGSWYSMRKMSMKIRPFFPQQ
Chain of human fibrinogen (human) (P02679 other isoform, or with tags, fused parts or gaps limits assumed, chain 3 of 3, further chain): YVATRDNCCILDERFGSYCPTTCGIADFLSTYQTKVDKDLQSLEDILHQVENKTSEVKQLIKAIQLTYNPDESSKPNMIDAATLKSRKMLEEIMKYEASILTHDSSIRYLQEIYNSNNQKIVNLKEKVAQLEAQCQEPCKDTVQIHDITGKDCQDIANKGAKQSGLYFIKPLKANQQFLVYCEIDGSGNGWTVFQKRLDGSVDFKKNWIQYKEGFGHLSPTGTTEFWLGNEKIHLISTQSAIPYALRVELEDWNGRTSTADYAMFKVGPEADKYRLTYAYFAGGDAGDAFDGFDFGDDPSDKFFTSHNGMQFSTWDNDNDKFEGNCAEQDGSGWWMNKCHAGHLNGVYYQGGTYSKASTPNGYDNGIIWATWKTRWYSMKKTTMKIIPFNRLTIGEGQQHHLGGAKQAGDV

| Binder | OD450 Fibrinogen |
| --- | --- |
| B1 | 0.0209 OD450 |
| B2 | 0.0117 OD450 |
| B3 | 0.0366 OD450 |
| B4 | 0.0022 OD450 |
